# Data as given in article PMC2724274 (Nucleic Acids Research, 2009).
# B1: CrgA (contact-regulated gene A), full-length, from Neisseria meningitidis (natural protein, UniProt Q9JXW7 1-299, looked up)
# chain: MKTNSEELTVFVQVVESGSFSRAAEQLAMANSAVSRIVKRLEEKLGVNLLNRTTRQLSLTEEGAQYFRRAQRILQEMAAAETEMLAVHEIPQGVLSVDSAMPMVLHLLAPLAAKFNERYPHIRLSLVSSEGYINLIERKVDIALRAGELDDSGLRARHLFDSRFRVIASPEYLAKHGTPQSTEELAGHQCLGFTEPGSLNTWAVLDAQGNPYKISPHFTASSGEILRSLCLSGCGIVCLSDFLVDNDIAEGKLIPLLAEQTSDKTHPFNAVYYSDKAVNLRLRVFLDFLVEELGNNLCG
# Biological target: the molecule itself
# Assay: crystal structure
protein,measurement,value
B1,stoichiometry N,8
